Patent publication US20250332297A1, “DLL3-SPECIFIC BINDING CONSTRUCTS AND THEIR USE IN RADIOTHERAPY” (MOLECULAR PARTNERS AG, priority 2024, published 2025)
Blank lines part the entries; values can stand above or below the molecule they belong to.

Columns and labels:
Human DLL3-NTD = target: T1, Human DLL3-NTD (Homo sapiens, UniProt Q9NYJ7); assay: SPR binding to human DLL3-NTD (Example 11); settings: immobilized biotinylated target, 1:1 Langmuir, Table 14
T1 construct: comprising only the N-Terminal Domain (NTD, residues 27-189); 6xHis (C); made in house; host or cells: Expi293F cells
T1 sequence (Q9NYJ7 27-189): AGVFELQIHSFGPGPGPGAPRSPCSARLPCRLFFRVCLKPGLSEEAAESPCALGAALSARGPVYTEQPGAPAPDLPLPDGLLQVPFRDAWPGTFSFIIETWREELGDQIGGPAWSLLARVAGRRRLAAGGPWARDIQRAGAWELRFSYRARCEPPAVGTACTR
Experimental: The truncated human DLL3 construct, comprising only the N-Terminal Domain (NTD, residues 27-189), was designed with a C-terminal 6×His and Avi-tag. Co-expression was carried in Expi293F cells and purification was performed via Ni-NTA affinity chromatography followed by SEC. The final material was monomeric on size exclusion and stored in PBS pH 7.4 at the final concentration of 0.26 mg/ml.
(§1) The binding of 2D ankyrin repeat protein MAM279 as well as of MAM279 conjugated to the chelator DOTAM (the conjugation was performed as described in Example 3) to different target proteins was analyzed by Surface Plasmon Resonance (SPR). Specifically, the proteins analyzed were (i) MAM279 (SEQ ID NO: 11), with a Glycine-Serine (GS) at its N-terminal end and an N-terminal His-tag (SEQ ID NO: 19); and (ii) MAM279 (SEQ ID NO: 11), with a Glycine-Serine (GS) at its N-terminal end and a tag (SEQ ID NO: 10) at its C-terminal end (resulting in GS-MAM279-tag (SEQ ID NO: 15)), conjugated to the chelator DOTAM as described in Example 3.
(§2) A surface plasmon resonance (SPR) assay was used to determine the binding kinetics of the two proteins (i.e. MAM279 with and without conjugation to chelator) to different targets: the Extra-Cellular Domain (ECD) of human DLL3, the ECD of cynomolgus monkey DLL3, the N-Terminal Domain (NTD) only of human DLL3, and the NTD dog DLL3. The data were generated using BioRad ProteOn instrument in SPR running buffer (PBS, pH 7.4 containing 0.005% Tween 20©). […] The chip was coated with biotinylated target to reach a signal intensity of 1516 RU (human ECD), 257 RU (human NTD), 1500 RU (cyno ECD) and 228 RU (dog NTD). All analytes (various concentrations in 3-fold dilutions ranging from 500-6.17 nM) were injected in succession for 240 s (100 μl/min) and dissociation was recorded for 10800 s (100 μl/min). Each injection was followed by a regeneration step with 16 mM H3PO4 for 18 s. […] The obtained SPR traces were used to determine on-rate and off-rate interaction parameters.

Cyno DLL3-ECD = assay: SPR binding to cyno DLL3-ECD (Example 11); design: species or system cynomolgus monkey
Text: The DLL3 target protein from cynomolgus macaque (cyno) was produced similarly to the human target protein. It consisted of the extracellular domain of the cyno DLL3 protein (XP_005589253.1, Gene ID:102115332, residues 27 to 466, purchased from Evitria) linked via an Avi-tag (for site-directed biotinylation), followed by a 3C protease recognition site, to a Fc knob into hole. The target protein was expressed in CHO cells (Chinese hamster ovary cells) by Evitria and purified by a protein A derivative-based affinity chromatography followed by preparative size exclusion chromatography (SEC). The material was up-concentrated in PBS pH 7.4 to 0.53 mg/ml and in vitro biotinylated using recombinant BirA. The final material was monomeric on size exclusion and stored in PBS pH 7.4 at the final concentration of 0.26 mg/ml.
as §1, §2

mouse serum albumin = target: T2, mouse serum albumin (Mus musculus, UniProt P07724); assay: SPR binding to mouse serum albumin (Example 18); settings: immobilized MSA, 1:1 Langmuir, Table 21
T2 construct: purchased Sigma-Aldrich
Experimental: SPR multi-trace analyses were performed similarly as described in previous Examples. The following ankyrin repeat proteins analyzed: (i) MAM279 (SEQ ID NO: 11) (with a Glycine-Serine (GS) at its N-terminal end); and (ii) MAM279 (SEQ ID NO: 11), with a Glycine-Serine (GS) at its N-terminal end and a tag (SEQ ID NO: 10) at its C-terminal end (resulting in GS-MAM279-tag (SEQ ID NO: 15)), conjugated to the chelator DOTAM as described in Example 3.
All analytes (3-fold dilution ranging from 600-7.41 nM) were injected in succession for 240 s and dissociation was recorded for 600 s using a constant flow of 25 μl/min (HSA) or 100 μl/min (MSA) (25 μl/min). […] The obtained SPR traces were used to determine the DARPin-serum albumin interaction parameters, and results are summarized in Table 21.

[1] = tested on: hDLL3-expressing MC38 (MC38-hDLL3) colon carcinoma cells; assay: Internalization in MC38-hDLL3 cells; assay type: cell-based; settings: AF488 label with anti-AF488 quencher, 37° C.
Experimental: Studies were performed to determine whether a half-life extended DLL3-specific ankyrin repeat protein, as described herein, is internalized upon binding to cells expressing DLL3 on their surface. The specific ankyrin repeat protein tested was MAM279 (SEQ ID NO: 11) (with a Glycine-Serine (GS) at its N-terminal end). […] As a comparison, internalization was also tested for Rova antibody. Internalization was investigated on different cell types expressing DLL3 on their surface, namely SHP-77 lung carcinoma cells, NCI-H82 lung carcinoma cells, and hDLL3-expressing MC38 (MC38-hDLL3) colon carcinoma cells. In brief, DARPin and antibody were pre-incubated and labelled with fluorescently labelled detection antibodies (Fab-AF488) and added to 5×10^4 cells/well in a 96-well plate (100 nM DARPin, 10 nM antibody control) and incubated for 1h on ice. Cells were washed once with PBS and then incubated for different timepoints (0 min, 15 min, 30 min, 1 h and/or 4 h) at 37° C. in PBS with 2% FCS. […] Raw fcs files were exported and analyzed using FlowJo software. MFI values of live AF488-positive cells were exported from FlowJo and plotted using GraphPad Prism software. % internalization was determined by normalizing to non-binding control DARPin (for MAM279) or non-binding isotype control IgG (for Rova). […]

[2] = SPR, immobilized biotinylated target, 1:1 Langmuir, Table 15

T2 sequence (P07724 25-608): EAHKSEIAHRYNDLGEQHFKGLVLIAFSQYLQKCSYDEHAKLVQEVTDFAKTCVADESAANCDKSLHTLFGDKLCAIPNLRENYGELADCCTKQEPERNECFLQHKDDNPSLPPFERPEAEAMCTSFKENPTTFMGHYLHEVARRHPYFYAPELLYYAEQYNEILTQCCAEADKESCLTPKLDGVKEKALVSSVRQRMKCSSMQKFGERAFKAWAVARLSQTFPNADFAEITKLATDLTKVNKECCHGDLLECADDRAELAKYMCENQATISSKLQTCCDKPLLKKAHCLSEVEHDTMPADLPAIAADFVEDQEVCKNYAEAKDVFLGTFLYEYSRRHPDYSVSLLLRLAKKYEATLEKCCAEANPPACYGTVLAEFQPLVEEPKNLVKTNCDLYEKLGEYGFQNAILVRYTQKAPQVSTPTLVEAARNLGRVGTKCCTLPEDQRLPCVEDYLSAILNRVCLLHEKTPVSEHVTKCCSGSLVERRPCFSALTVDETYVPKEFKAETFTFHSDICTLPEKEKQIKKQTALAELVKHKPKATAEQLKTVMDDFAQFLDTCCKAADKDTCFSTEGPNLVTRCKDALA

- Kd (Human DLL3-NTD): 0.263 nM
- Koff Human DLL3-NTD (Human DLL3-NTD): 1.54e-05 s⁻¹
- Kon Human DLL3-NTD (Human DLL3-NTD): 58700 M⁻¹ s⁻¹
- fold lower affinity (higher KD) for cynomolgus monkey DLL3-ECD than for human DLL3-ECD (Cyno DLL3-ECD; SPR KD comparison): about 100 fold
- Kd (Cyno DLL3-ECD; [2]): 22 nM
- Koff Cyno DLL3-ECD (Cyno DLL3-ECD; [2]): 0.000978 s⁻¹
- Kon Cyno DLL3-ECD (Cyno DLL3-ECD; [2]): 44500 M⁻¹ s⁻¹
B1: MAM279: Two domain (2D) ankyrin repeat protein: serum albumin-specific domain (SEQ ID NO: 7), PT linker, DLL3-specific domain of MAM093 (protein)
chain: DLGKKLLEAARAGQDDEVRELLKAGADVNAKDYFSHTPLHLAARNGHLKIVEVLLKAGADVNAKDFAGKTPLHLAADAGHLEIVEVLLKAGADVNAQDIFGKTPADIAADAGHEDIAEVLQKAAGSPTPTPTTPTPTPTTPTPTPTGSDLGKKLLAAAAQGQDDEVRELLKAGANVNAKDLFGYTPLHLAAWRGHLEIVEVLLKAGADVNAKDAAGETPLHLAAWFGHLEIVEVLLKAGADVNAQDLQGKTPADLAAKEGHEDIAEVLQKAA
modifications: Ankyrin repeat protein (MAM279)
- Kd (mouse serum albumin): 144 nM
- Koff MSA (mouse serum albumin): 0.0383 s⁻¹
- Kon MSA (mouse serum albumin): 267000 M⁻¹ s⁻¹
- internalization [1]: similarly internalized

B2: Rova: Rova antibody, DLL3-binding benchmark antibody used as positive control and comparison (antibody, chains of the INN, looked up, V domains shown)
VH: QVQLVQSGAEVKKPGASVKVSCKASGYTFTNYGMNWVRQAPGQGLEWMGWINTYTGEPTYADDFKGRVTMTTDTSTSTAYMELRSLRSDDTAVYYCARIGDSSPSDYWGQGTLVTVSS
VL: EIVMTQSPATLSVSPGERATLSCKASQSVSNDVVWYQQKPGQAPRLLIYYASNRYTGIPARFSGSGSGTEFTLTISSLQSEDFAVYYCQQDYTSPWTFGQGTKLEIK
- internalization [1]: internalization

- Koff Human DLL3-NTD (Human DLL3-NTD): 1.99e-05 s⁻¹
- Kon Human DLL3-NTD (Human DLL3-NTD): 50400 M⁻¹ s⁻¹
- Koff Cyno DLL3-ECD (Cyno DLL3-ECD; [2]): 0.00125 s⁻¹
- Kon Cyno DLL3-ECD (Cyno DLL3-ECD; [2]): 36000 M⁻¹ s⁻¹
B3: MAM279-DOTAM: GS-MAM279-tag (SEQ ID NO: 15) conjugated to the chelator DOTAM via C-terminal tag and maleimide connector, no radionuclide (conjugate)
chain: GSDLGKKLLEAARAGQDDEVRELLKAGADVNAKDYFSHTPLHLAARNGHLKIVEVLLKAGADVNAKDFAGKTPLHLAADAGHLEIVEVLLKAGADVNAQDIFGKTPADIAADAGHEDIAEVLQKAAGSPTPTPTTPTPTPTTPTPTPTGSDLGKKLLAAAAQGQDDEVRELLKAGANVNAKDLFGYTPLHLAAWRGHLEIVEVLLKAGADVNAKDAAGETPLHLAAWFGHLEIVEVLLKAGADVNAQDLQGKTPADLAAKEGHEDIAEVLQKAAGSGSC
modifications: DOTAM chelator via maleimide on C-terminal tag; Ankyrin repeat protein with tag (GS-MAM279-tag)
- Koff MSA (mouse serum albumin): 0.0425 s⁻¹
- Kon MSA (mouse serum albumin): 155000 M⁻¹ s⁻¹
